Target: T1, recombinant human IL-20Rb (human, UniProt Q6UXL0 30-233)
T1 construct: also called human recombinant IL-20RB; recombinant IL-20RB
T1 sequence: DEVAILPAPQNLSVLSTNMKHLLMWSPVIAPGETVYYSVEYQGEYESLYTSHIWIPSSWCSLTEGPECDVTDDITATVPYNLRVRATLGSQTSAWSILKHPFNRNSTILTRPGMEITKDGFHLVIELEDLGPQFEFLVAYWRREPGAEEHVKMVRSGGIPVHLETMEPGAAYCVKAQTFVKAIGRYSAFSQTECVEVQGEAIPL
Test: ELISA on coated recombinant IL-20Rb (FIG. 8)

- binding result: binds
B1: B7 antibody (native B7 clone), human anti-IL-20Rb antibody (antibody, mouse IgG2a, V domains shown)
VH: EVQLVESGGSLVKPGGSLRLSCAASGFTFSNYSMNWVRQAPGKGLEWISYISGSSRYISYADFVKGRFTISRDNATNSLYLQMNSLRAEDTAVYYCVRSYYGMDVWGRGTLVTVSS
VL: QSVLTQPASVSGSPGQSITISCAGTSSDVGGNYYVSWYQQHPGKAPKLMIYGDSYRPSGVSNRFSGSKSGNTASLTISGLQAEDEADYYCSSYTYYSTRVFGGGTKLAVLG

Source: patent US20230002497A1 (INSERM INSTITUT NATIONAL DE LA SANTE ET DE LA RECHERCHE …, published 2023)
